T1: RAP (RIP-associated protein) (human, UniProt Q9Y3I1 1-522, limits assumed)
T1 construct: The clone first isolated in the two-hybrid screen was a partial clone of about 1.9 Kb; also called RAP protein; RAP-1 (clone of about 2.2 kB, CNCM I-2706)
T1 sequence: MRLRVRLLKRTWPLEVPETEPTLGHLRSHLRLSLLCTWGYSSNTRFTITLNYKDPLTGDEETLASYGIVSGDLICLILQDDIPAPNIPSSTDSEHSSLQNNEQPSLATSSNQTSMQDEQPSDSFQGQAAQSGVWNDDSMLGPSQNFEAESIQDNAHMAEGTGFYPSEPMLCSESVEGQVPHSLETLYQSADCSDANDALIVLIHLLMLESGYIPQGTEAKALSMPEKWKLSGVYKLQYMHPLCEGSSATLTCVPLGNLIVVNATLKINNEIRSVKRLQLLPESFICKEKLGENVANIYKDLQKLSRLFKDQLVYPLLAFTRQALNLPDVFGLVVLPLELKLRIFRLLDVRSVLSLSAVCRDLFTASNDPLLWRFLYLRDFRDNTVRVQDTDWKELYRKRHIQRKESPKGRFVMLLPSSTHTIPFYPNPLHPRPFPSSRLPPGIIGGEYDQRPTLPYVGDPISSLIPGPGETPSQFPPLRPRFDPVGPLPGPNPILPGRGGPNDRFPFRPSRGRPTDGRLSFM

B1: MORT-1 (other, UniProt Q13158 1-208, looked up)
chain: MDPFLVLLHSVSSSLSSSELTELKFLCLGRVGKRKLERVQSGLDLFSMLLEQNDLEPGHTELLRELLASLRRHDLLRRVDDFEAGAAAGAAPGEEDLCAAFNVICDNVGKDWRRLARQLKVSDTKIDSIEDRYPRNLTERVRESLRIWKNTEKENATVAHLVGALRSCQMNLVADLVQEVQQARDLQNRSGAMSPMSWNSDASTSEAS
notes: also called FADD
B2: p75-R (receptor, UniProt P20333 287-461, looked up)
chain: VKKKPLCLQREAKVPHLPADKARGTQGPEQQHLLITAPSSSSSSLESSASALDRRAPTRNQPQAPGVEASGAGEARASTGSSDSSPGGHGTQVNVTCIVNVCSSSDHSSQCSSQASSTMGDTDSSPSESPKDEQVPFSKEECAFRSQLETPETLLGSTEEKPLPLGVPDAGMKPS
notes: also called p75 TNF-R; p75 tumor necrosis factor receptor
B3: TRADD (other, UniProt Q15628 1-312, looked up)
chain: MAAGQNGHEEWVGSAYLFVESSLDKVVLSDAYAHPQQKVAVYRALQAALAESGGSPDVLQMLKIHRSDPQLIVQLRFCGRQPCGRFLRAYREGALRAALQRSLAAALAQHSVPLQLELRAGAERLDALLADEERCLSCILAQQPDRLRDEELAELEDALRNLKCGSGARGGDGEVASAPLQPPVPSLSEVKPPPPPPPAQTFLFQGQPVVNRPLSLKDQQTFARSVGLKWRKVGRSLQRGCRALRDPALDSLAYEYEREGLYEQAFQLLRRFVQAEGRRATLQRLVEALEENELTSLAEDLLGLTDPNGGLA
B4: p55-R (receptor, UniProt P19438 235-455, looked up)
chain: RYQRWKSKLYSIVCGKSTPEKEGELEGTTTKPLAPNPSFSPTPGFTPTLGFSPVPSSTFTSSSTYTPGDCPNFAAPRREVAPPYQGADPILATALASDPIPNPLQKWEDSAHKPQSLDTDDPATLYAVVENVPPLRWKEFVRRLGLSDHEIDRLELQNGRCLREAQYSMLATWRRRTPRREATLELLGRVLRDMDLLGCLEDIEEALCGPAALPPAPSLLR
notes: also called p55 TNF-R; p55 tumor necrosis factor receptor

Molecular target: T1, RAP (RIP-associated protein)
Test: binding assay tests (method not named)

Row | Binder | binding result
1 | B1 | no binding
2 | B2 | no binding
3 | B3 | no binding
4 | B4 | no binding

From patent US20020058024A1 (YEDA RESEARCH AND DEVELOPMENT, published 2002)
